The values below come from publication PMC2063517, “Leptospira interrogans Endostatin-Like Outer Membrane Proteins Bind Host Fibronectin, Laminin and Regulators of Complement” (PLoS ONE, 2007).

Assay [1] concerns the target 30-kDa amino-terminal domain of fibronectin (human). Briefly: ELISA; human plasma fibronectin or its proteolytic fragments (70 kDa, 30 kDa NTD, 45 kDa GBD) immobilised in wells, soluble LenA or LenB added, detected by anti-polyhistidine; Kd = concentration of Len protein giving half-maximal binding.
Assay [2] has as its target murine laminin (murine). Kind of assay: ELISA; data not shown: laminin immobilised, 1 µM LenB with 1 µM or 4 µM heparin in the binding buffer.
Assay [3] deals with murine laminin (murine). Kind of assay: ELISA; 1 µg murine laminin immobilised in microtiter wells, soluble LenA or LenB added in PBS-based binding buffer, detected by anti-polyhistidine; Kd = concentration of Len protein giving half-maximal binding; in some experiments additional NaCl or porcine heparin in the buffer (heparin also preincubated with laminin).
For assay [4], the target named is human plasma fibronectin (intact) (human). Briefly: ELISA; human plasma fibronectin or its proteolytic fragments (70 kDa, 30 kDa NTD, 45 kDa GBD) immobilised in wells, soluble LenA or LenB added, detected by anti-polyhistidine; Kd = concentration of Len protein giving half-maximal binding. To be noted: both partners purified.

Take “recombinant LenB, L. interrogans serovar Bratislava (from UniProt A8SKK5 1-236) (natural protein)”: the Kd in assay [1] came out at 69.5 nM. Besides, in assay [2], the binding of 1 µM LenB with 1 µM heparin, percent of the no-heparin control was determined as 75% and the binding of 1 µM LenB with 4 µM heparin, percent of the no-heparin control came out at 55%. In addition, in assay [3], the dissociation constant (Kd) is 118 nM; the binding of 0.25 µM LenB with 50 µM heparin (laminin preincubated with 50 µM heparin), percent of the no-heparin control was 25%; the percent inhibition of binding at 200 mM NaCl against 150 mM NaCl was determined as 40%; the percent inhibition of binding at 500 mM NaCl against 150 mM NaCl worked out at 79%.

In the case of “recombinant LenA (leptospiral endostatin-like protein A), L. interrogans serovar Lai (from UniProt Q8F863 1-240) (natural protein)”, in assay [3], the binding of 1 µM LenA with 1 µM heparin, percent of the no-heparin control stood at 26%; the percent reduction of binding at 200 mM NaCl against 150 mM NaCl worked out at 49%; the percent reduction of binding at 500 mM NaCl against 150 mM NaCl was found to be 60%.

B1: recombinant LenB, L. interrogans serovar Bratislava (natural protein)
chain: MFKNIFLIFLTGSVVCILWSCGDKKEEDNSDLLLFLLNSLGSSNSAASTVVTSCKDASFCRTFVATNNGAGYDGNLGGISGADAKCAAAKSSNLTGTYKALLAAMGTREAVFVGDGSTRLVDWVLYPNKQYRRSDGTTTTFTTNANSVVTANLQNSVDVGAEKFYWIGVGNQPATFDWEVSLNCNDWNSNNAVNFAIDGTTSSNEVFAGDGATPGGAFGSHNTGCNIRLNLLCVEQ
notes: Made with the vector pET200 (Invitrogen); source: E. coli, inclusion bodies, purified in 8M urea (MagneHis nickel beads), dialyzed against PBS; dissolved into PBS after 2-3 days at 4°C
Take B1: binding in assay [4] was put at a Kd of 106 nM.
